IntAct's records for PubMed 31515488

B1: Arginine/serine-rich protein 1 (Homo sapiens), Q9BUV0 (parent)
chain: MSNYVNDMWPGSPQEKDSPSTSRSGGSSRLSSRSRSRSFSRSSRSHSRVSSRFSSRSRRSKSRSRSRRRHQRKYRRYSRSYSRSRSRSRSRRYRERRYGFTRRYYRSPSRYRSRSRSRSRSRGRSYCGRAYAIARGQRYYGFGRTVYPEEHSRWRDRSRTRSRSRTPFRLSEKDRMELLEIAKTNAAKALGTTNIDLPASLRTVPSAKETSRGIGVSSNGAKPELSEKVTEDGTRNPNEKPTQQRSIAFSSNNSVAKPIQKSAKAATEEASSRSPKIDQKKSPYGLWIPI
B2: Transcription factor 12 (Homo sapiens), Q99081-3 (parent)
chain: MNPQQQRMAAIGTDKELSDLLDFSAMFSPPVNSGKTRPTTLGSSQFSGSGIDERGGTTSWGTSGQPSPSYDSSRGFTDSPHYSDHLNDSRLGAHEGLSPTPFMNSNLMGKTSERGSFSLYSRDTGLPGCQSSLLRQDLGLGSPAQLSSSGKPGTAYYSFSATSSRRRPLHDSAALDPLQAKKVRKVPPGLPSSVYAPSPNSDDFNRESPSYPSPKPPTSMFASTFFMQDGTHNSSDLWSSSNGMSQPGFGGILGTSTSHMSQSSSYGNLHSHDRLSYPPHSVSPTDINTSLPPMSSFHRGSTSSSPYVAASHTPPINGSDSILGTRGNAAGSSQTGDALGKALASIYSPDHTSSSFPSNPSTPVGSPSPLTGTSQWPRPGGQAPSSPSYENSLHSLKNRVEQQLHEHLQDAMSFLKDVCEQSRMEDRLDRLDDAIHVLRNHAVGPSTSLPAGHSDIHSLLGPSHNAPIGSLNSNYGGSSLVASSRSASMVGTHREDSVSLNGNHSVLSSTVTTSSTDLNHKTQENYRGGLQSQSGTVVTTEIKTENKEKDENLHEPPSSDDMKSDDESSQKDIKVSSRGRTSSTNEDEDLNPEQKIEREKERRMANNARERLRVRDINEAFKELGRMCQLHLKSEKPQTKLLILHQAVAVILSLEQQVRERNLNPKAACLKRREEEKVSAVSAEPPTTLPGTHPGLSETTNPMGHM
partner: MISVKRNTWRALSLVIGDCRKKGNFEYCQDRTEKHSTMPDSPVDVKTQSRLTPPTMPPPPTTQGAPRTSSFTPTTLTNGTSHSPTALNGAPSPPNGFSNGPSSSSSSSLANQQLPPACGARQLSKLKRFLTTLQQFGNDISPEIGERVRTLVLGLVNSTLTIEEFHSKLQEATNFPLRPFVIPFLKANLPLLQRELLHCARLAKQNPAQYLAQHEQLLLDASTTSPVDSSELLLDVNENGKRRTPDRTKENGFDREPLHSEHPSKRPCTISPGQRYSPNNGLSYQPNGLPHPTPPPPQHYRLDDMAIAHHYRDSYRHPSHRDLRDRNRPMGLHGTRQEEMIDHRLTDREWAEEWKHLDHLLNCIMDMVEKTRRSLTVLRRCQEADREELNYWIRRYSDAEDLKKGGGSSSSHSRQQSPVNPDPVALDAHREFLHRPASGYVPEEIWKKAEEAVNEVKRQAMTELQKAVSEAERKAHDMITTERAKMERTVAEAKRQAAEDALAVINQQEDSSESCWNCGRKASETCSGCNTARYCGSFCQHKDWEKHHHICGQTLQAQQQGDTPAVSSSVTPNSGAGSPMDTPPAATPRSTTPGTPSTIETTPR
B3: Tripartite motif-containing protein 59 (Homo sapiens), Q8IWR1 (parent)
chain: MHNFEEELTCPICYSIFEDPRVLPCSHTFCRNCLENILQASGNFYIWRPLRIPLKCPNCRSITEIAPTGIESLPVNFALRAIIEKYQQEDHPDIVTCPEHYRQPLNVYCLLDKKLVCGHCLTIGQHHGHPIDDLQSAYLKEKDTPQKLLEQLTDTHWTDLTHLIEKLKEQKSHSEKMIQGDKEAVLQYFKELNDTLEQKKKSFLTALCDVGNLINQEYTPQIERMKEIREQQLELMALTISLQEESPLKFLEKVDDVRQHVQILKQRPLPEVQPVEIYPRVSKILKEEWSRTEIGQIKNVLIPKMKISPKRMSCSWPGKDEKEVEFLKILNIVVVTLISVILMSILFFNQHIITFLSEITLIWFSEASLSVYQSLSNSLHKVKNILCHIFYLLKEFVWKIVSH
partner: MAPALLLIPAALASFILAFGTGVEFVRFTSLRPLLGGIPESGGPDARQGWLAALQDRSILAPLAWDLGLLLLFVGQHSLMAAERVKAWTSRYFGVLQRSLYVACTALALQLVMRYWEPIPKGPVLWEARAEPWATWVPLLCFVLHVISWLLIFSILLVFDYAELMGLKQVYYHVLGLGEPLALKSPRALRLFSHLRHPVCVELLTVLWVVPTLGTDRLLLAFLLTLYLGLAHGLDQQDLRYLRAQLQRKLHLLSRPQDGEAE

Variants of: B1
Settings: with clk2_human CLK2, P49760
Chain of clk2_human CLK2, P49760 (P49760 whole entry, looked up): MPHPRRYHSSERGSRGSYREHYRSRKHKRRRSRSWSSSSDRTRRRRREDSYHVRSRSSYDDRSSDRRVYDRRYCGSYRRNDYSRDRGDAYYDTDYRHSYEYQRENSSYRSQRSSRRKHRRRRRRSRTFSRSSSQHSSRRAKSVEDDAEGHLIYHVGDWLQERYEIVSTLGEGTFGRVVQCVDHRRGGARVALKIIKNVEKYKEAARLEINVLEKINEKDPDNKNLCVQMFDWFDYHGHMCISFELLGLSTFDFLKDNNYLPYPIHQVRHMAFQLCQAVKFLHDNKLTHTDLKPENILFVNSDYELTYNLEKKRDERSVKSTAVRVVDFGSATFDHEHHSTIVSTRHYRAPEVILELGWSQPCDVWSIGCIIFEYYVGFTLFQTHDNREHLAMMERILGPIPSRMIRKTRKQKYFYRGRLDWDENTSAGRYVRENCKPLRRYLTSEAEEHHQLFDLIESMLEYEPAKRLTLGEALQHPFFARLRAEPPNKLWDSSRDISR

Effect of a mutation on the interaction, with no effect:
S20L
Y147H
V216A

Variants of: B1
Settings: with clk3_human CLK3, P49761
Chain of clk3_human CLK3, P49761 (P49761 whole entry, looked up): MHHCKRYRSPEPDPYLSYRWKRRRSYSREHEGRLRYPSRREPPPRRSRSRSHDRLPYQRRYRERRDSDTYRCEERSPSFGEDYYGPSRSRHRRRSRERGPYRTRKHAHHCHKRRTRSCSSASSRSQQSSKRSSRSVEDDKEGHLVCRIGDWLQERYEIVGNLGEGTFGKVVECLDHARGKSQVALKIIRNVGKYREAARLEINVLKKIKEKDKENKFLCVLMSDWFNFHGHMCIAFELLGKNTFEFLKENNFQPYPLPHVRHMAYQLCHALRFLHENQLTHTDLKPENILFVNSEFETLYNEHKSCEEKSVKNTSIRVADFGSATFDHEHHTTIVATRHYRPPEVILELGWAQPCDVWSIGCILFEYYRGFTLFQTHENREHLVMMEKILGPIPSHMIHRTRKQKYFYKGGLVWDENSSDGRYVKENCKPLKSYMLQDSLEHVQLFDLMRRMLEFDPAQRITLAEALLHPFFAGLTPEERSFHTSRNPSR

Effect of a mutation on the interaction, with no effect:
S20L
Y147H
V216A

Variants of: B2
Settings: with mtg8_human RUNX1T1, Q06455

Effect of a mutation on the interaction, with no effect:
A482V
R74G
A155T
S446F
Y120C
N606H

Variants of: B3
Settings: with nrm_human NRM

Effect of a mutation on the interaction, with no effect:
R258C
